The record followed here is patent US20140329289, “ANTI-FH APTAMERS, METHOD FOR PRODUCING SAME, AND USES THEREOF” (Laboratoire Francais du Fractionnement et des …, published 2014).

Sequences and labels used below:
B1: FAM1-3 (ssDNA)
DNA: GGGTCAATGCCAGGTCTCGGACCGCGATGGAGAGGGGTCTGGTGGTTATACGCTATGCATCGGCTCGCAAGCAGTC
B2: FAM1-4 (ssDNA)
DNA: B1 DNA with A21G
B3: FAM2-1 (ssDNA)
DNA: GGGTCAATGCCAGGTCTCCCGGTTACCGCGCTAAGCTTGGCGATGGTGTTAGTGGCTGATCGGCTCGCAAGCAGTC
B4: FAM2-5 (ssDNA)
DNA: GGGTCAATGCCAGGTCTCCCGGTTACCAACTATGATAGTATGGTGTTTGTGGCATGATCGGCTCGCAAGCAGTC
B5: FAM2-4 (ssDNA)
DNA: GGGTCAATGCCAGGTCTCCCGGTTACCAGTTGGTGTTTGTGGCTTTGCACGTCTGCATATCGGCTCGCAAGCAGTC
B6: IND1 (ssDNA)
DNA: GGGTCAATGCCAGGTCTCGGTGGGAGGTGAGGTCGTTGGACGGTGGCAGGGGATTTTGATCGGCTCGCAAGCAGTC
B7: FAM2-6 (ssDNA)
DNA: GGGTCAATGCCAGGTCTCCCGGTTACCATCGAGGACGTCGCTTGGTGTTTGTGGCATGATCGGCTCGCAAGCAGTC
B8: FAM1-12 (ssDNA)
DNA: GGGTCAATGCCAGGTCTCACCGGGTCAGGCGGTTATACGGGTGAGGGCAGGTACATACATCGGCTCGCAAGCAGTC
B9: FAM1-13 (ssDNA)
DNA: B8 DNA with A44G
B10: FAM1-11 (ssDNA)
DNA: GGGTCAATGCCAGGTCTCGGGGCAGGCGGTTATACGGAGAGCTTCTTACATGGGCCCTATCGGCTCGCAAGCAGTC
B11: FAM1-8 (ssDNA)
DNA: GGGTCAATGCCAGGTCTCAATCAGAAGGGTCTGGTGGTTATACGTTCATGTATTGGGTATCGGCTCGCAAGCAGTC
B12: FAM1-5 (ssDNA)
DNA: GGGTCAATGCCAGGTCTCGCAGAGGTGCGAGGGGCGGTGGGGTCTGGTGGTTATACGCATCGGCTCGCAAGCAGTC
B13: FAM1-6 (ssDNA)
DNA: GGGTCAATGCCAGGTCTCGAGGAACGTGGGGTCAGGTGGTTATACGCAGGGTACCGGGATCGGCTCGCAAGCAGTC
B14: FAM1-10 (ssDNA)
DNA: GGGTCAATGCCAGGTCTCTGGGGGAGGGAGGGTCTGGGGGTTATACGTCACTAGCAAAATCGGCTCGCAAGCAGTC
B15: FAM4 (ssDNA)
DNA: GGGTCAATGCCAGGTCTCCAAAGGGGGGGGTTGGGGGACCGTCCGTTGTTGATCTCACATCGGCTCGCAAGCAGTC
B16: FAM1-9 (ssDNA)
DNA: GGGTCAATGCCAGGTCTCGGGGTGCGAGGGTCTGGTGGTTATACGTCGTCACCTCTAGATCGGCTCGCAAGCAGTC
B17: FAM2-3 (ssDNA)
DNA: GGGTCAATGCCAGGTCTCCCGGTTACCTCCATTGGTGGTGTTAGTGGCTTTGTAGGATATCGGCTCGCAAGCAGTC
B18: FAM3 (ssDNA)
DNA: GGGTCAATGCCAGGTCTCTGAGGCGCAGATGTGGAGGCTTTTACAGGCGGTGCGGAACATCGGCTCGCAAGCAGTC
B19: FAM2-7 (ssDNA)
DNA: GGGTCAATGCCAGGTCTCCCGGTTACCAAGATCGTTGTTCTTGGTGTTAGTGGCATTCATCGGCTCGCAAGCAGTC
B20: FAM2-2 (ssDNA)
DNA: GGGTCAATGCCAGGTCTCCCGGTTACTGCCGTAGTTGTCTTACGGTGGTGTTAGTGGCATCGGCTCGCAAGCAGTC
B21: FAM1-7 (ssDNA)
DNA: GGGTCAATGCCAGGTCTCGGGGGGCCGGTTATACGGGTCAGGCGGTTATACGGTATTCATCGGCTCGCAAGCAGTC
B22: MaptH1.1 (ssDNA)
DNA: GGGTCAATGCCAGGTCTCGGGCACGGGTCAGGCGGTTATACGGTGCCCATTGTTCTTTATCGGCTCGCAAGCAGTC

Numbering of substitutions follows the chain as printed.

T1 sequence (P08603 19-1231, one chain of several): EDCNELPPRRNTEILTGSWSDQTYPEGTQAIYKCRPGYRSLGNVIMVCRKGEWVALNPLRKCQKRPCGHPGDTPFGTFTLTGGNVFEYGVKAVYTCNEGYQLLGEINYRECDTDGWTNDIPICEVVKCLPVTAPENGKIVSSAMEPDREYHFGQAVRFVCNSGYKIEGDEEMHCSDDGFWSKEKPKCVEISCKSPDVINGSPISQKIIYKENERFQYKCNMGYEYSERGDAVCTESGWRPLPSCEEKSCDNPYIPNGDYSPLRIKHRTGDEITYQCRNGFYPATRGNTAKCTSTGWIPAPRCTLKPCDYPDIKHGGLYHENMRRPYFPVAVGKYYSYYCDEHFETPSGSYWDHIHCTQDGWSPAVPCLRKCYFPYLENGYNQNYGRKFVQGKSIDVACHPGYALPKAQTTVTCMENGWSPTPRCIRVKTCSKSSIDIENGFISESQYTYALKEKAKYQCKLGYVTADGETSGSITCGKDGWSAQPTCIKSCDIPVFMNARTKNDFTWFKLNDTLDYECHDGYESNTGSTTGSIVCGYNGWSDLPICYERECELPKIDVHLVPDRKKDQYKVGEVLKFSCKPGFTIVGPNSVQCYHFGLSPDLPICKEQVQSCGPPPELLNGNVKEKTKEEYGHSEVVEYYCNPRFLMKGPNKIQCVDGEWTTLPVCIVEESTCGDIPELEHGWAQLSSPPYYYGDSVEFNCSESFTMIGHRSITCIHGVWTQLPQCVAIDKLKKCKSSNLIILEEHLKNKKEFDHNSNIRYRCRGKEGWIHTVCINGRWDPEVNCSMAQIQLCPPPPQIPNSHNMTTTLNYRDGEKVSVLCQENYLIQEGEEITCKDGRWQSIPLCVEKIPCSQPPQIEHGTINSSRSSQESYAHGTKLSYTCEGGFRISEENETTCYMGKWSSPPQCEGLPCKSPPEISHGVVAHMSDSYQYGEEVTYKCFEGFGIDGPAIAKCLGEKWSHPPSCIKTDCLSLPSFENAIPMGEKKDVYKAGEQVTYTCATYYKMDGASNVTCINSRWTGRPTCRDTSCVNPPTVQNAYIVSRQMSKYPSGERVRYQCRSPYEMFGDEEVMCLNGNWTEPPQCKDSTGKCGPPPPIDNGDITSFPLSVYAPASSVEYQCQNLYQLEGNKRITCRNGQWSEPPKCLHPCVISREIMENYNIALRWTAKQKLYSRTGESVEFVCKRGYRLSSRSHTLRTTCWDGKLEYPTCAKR

One data set concerns the target T1, Factor H (complement factor H), plasma (Homo sapiens, UniProt P08603 P08603:19-1231). The experiment in a line: SPR; rank 4 of 5 truncations; 50 mM NaCl, 50 mM MgCl2, pH 7.5. The conditions noted are these: tags: LFB preparation (Biacore, amine-coupled NHS/EDC on CM5 chip, 5813 RU); Calbiochem 341274 also used in SELEX. (In general: In SPR one partner is held on a chip, and binding of the other changes the refractive index at the surface.)
With GGGCACGGGTCAGGCGGTTATACGGTGCCC (ssDNA) [MaptH1.1 N19-48], the binding result was “binds”.

Another data set has as its target T1, Factor H (complement factor H), plasma. The experiment in a line: SPR; rank 3 of 5 truncations; 50 mM NaCl, 50 mM MgCl2, pH 7.5. The conditions noted are these: tags: LFB preparation (Biacore, amine-coupled NHS/EDC on CM5 chip, 5813 RU); Calbiochem 341274 also used in SELEX.
Take GGGCACGGGTCAGGCGGTTATACGGTGCCCATTGT (ssDNA) [MaptH1.1 N19-53]: the binding result is recorded as “binds”.

The target is the same in a further data set. As to the kind of experiment: SPR; binding stability; 10 mM MgCl2, pH 7.5. The conditions noted are these: tags: LFB preparation (Biacore, amine-coupled NHS/EDC on CM5 chip, 5813 RU); Calbiochem 341274 also used in SELEX.
In turn, B1 registered a binding signal of 20.9 RU.

Molecule B2 showed a binding signal of 26.2 RU.

In the case of B3, the binding signal was found to be 29.6 RU.

For the molecule B4, the binding signal is 22.2 RU.

Molecule B5 had a binding signal of 27.6 RU.

B6 gave a binding signal of 20.1 RU.

In turn, B7 returned a binding signal of 22.1 RU.

Regarding B8, the binding signal is 18.2 RU.

For the molecule B9, the binding signal was found to be 30.6 RU.

In turn, B10 came in with a binding signal of 16.9 RU.

Turning to B11, the binding signal came to 36 RU.

Consider B12, for which the binding signal stood at 21.2 RU.

As for B13, the binding signal turned out to be 30 RU.

Molecule B14 gave a binding signal of 73.5 RU.

In turn, B15 displayed a binding signal of 25.9 RU.

Turning to B16, the binding signal amounted to 57.8 RU.

Molecule B17 displayed a binding signal of 18.2 RU.

With B18, the binding signal was determined as 11.7 RU.

For B19, the binding signal worked out at 22.1 RU.

On to B20, for which the binding signal came out at 22.4 RU.

In the case of B21, the binding signal is 15.4 RU.

For a further data set the target is unchanged. The experiment in a line: SPR; rank 2 of 5 truncations; 50 mM NaCl, 50 mM MgCl2, pH 7.5. The note with it: tags: LFB preparation (Biacore, amine-coupled NHS/EDC on CM5 chip, 5813 RU); Calbiochem 341274 also used in SELEX.
Take GGGCACGGGTCAGGCGGTTATACGGTGCCCATTGTTCTTT (ssDNA) [MaptH1.1 N19-58]: the binding result is recorded as “binds”.

A further data set has the same target. As to the kind of experiment: SPR; strongest of the five truncations; 50 mM Tris, 50 mM NaCl, 50 mM MgCl2, pH 7.5; p444 calls the FH recombinant, methods say LFB FH. The conditions noted are these: tags: LFB preparation (Biacore, amine-coupled NHS/EDC on CM5 chip, 5813 RU); Calbiochem 341274 also used in SELEX.
For CAGGTCTCGGGCACGGGTCAGGCGGTTATACGGTGCCC (ssDNA) [MaptH1.1 N13-48 (MaptH1.1CSO)], the binding result is listed as “binds”.

A further data set shares this target. The experiment in a line: pulldown; affinity chromatography on aptamer-agarose; 74% of A254 retained and eluted with EDTA; 50 mM MgCl2, 50 mM NaCl, pH 7.5. The conditions noted are these: tags: LFB preparation (Biacore, amine-coupled NHS/EDC on CM5 chip, 5813 RU); Calbiochem 341274 also used in SELEX; label: biotin. As to the method: The plasma factor H is eluted with a 50 mM Tris+500 mM EDTA buffer at pH 8.0. The elution peak is collected according to the OD profile.
On to B22, for which the binding result was “binds”.
